Consider 1 protein from article doi:10.1101/2021.06.16.448687 (bioRxiv, 2021).

The data set deals with the molecule itself. Nature of the data set: AUC.

In general, stoichiometry N refers to the number of molecules, sites or subunits per partner or assembly.

B1: stabilized H176C form of the soluble human LLT1 ectodomain (Gln72-Val191), glycosylated (domain or fragment, UniProt Q9UHP7 72-191, looked up)
chain: QAACPESWIGFQRKCFYFSDDTKNWTSSQRFCDSQDADLAQVESFQELNFLLRYKGPSDHWIGLSREQGQPWKWINGTEWTRQFPILGAGECAYLNDKGASSARCYTERKWICSKSDIHV
modifications: GlcNAc2Man5 N-glycans
In the case of B1, the “stoichiometry N” value was determined as 2.
